Two molecules from article PMC4184033 (Nature structural & molecular biology, 2011) can be followed below.

B1: Psf2 (natural protein, Drosophila melanogaster, UniProt Q9VQY9 1-203, looked up)
chain: MDPSIIEFIGEKCMISIIPNFSNEPLHLIYGPVGPFRAGFPVFVPLWMATHLRKQQKCRIVPPEWMDMDILEEIKEEEKRSKFFTKMPCEHYMVVAQLVMSTAPDDVPRCEELRTVIKDIFDIRESKLRTSIDAFIKGEGTYAKLDNLTLLEIHSVRPILPYSLDHIARYQRTATASQRDTSMLSASMAGSSSGPNSNSLFSQ
B2: Cdc45 (natural protein, Drosophila melanogaster, UniProt O96989 1-575, looked up)
chain: MFVQDLRNDFYRQLVGKRILIVVNYDIDAICASRILQALFKYDHMLYTVVPIMGVTGLKRAYGEHQGDVKYVVLVNCGGCVDIVELLQPSDDVTFFICDSHRPLDVCNIYSDRQVCILGDASLEENIPAFETIFYDSEGEDEDEDESSDTEQQHDDSGAGESDQEDQAPRSRKLSRLERHEQRILKQRARRQWESERDRIMFEYTQFSYYGRSAALMVFELAWKLSKDNMDLLWWAIVGITEQLLLGKIESGAYTLELEQIQSHVSRLTNKTNDQNTMSASKITFENDLHLVLYRHWPVTESMRYSRYSSCQLKLWTLRGEKRLHELLLEMGLPLVHARQTYGAMDLVLRKEFFSMVERLAEKYDIADIVYGTFTLSYGYRSRYAAADYVYALLAIMESVKKHKTPEDCFLEASDALSRQHKQLLSAGIDQAKLLHAAVFRQVQSSLEARQVHSAGSFFYYVLQEEHAFFSYPYALGLLARFLLRGHVATSRARQASDLPLIASCPLNASEGMCLLVGIVPVREDSPRNFFGKAFEQAAQKSGVALLQDFFEPAVVQLRQSDLTRFLDSLTVLLA

What all share (experiment): negative-stain single-particle EM
The target in test [1] is T1, Mcm5 (Drosophila melanogaster, UniProt Q9VGW6 1-733).
T1 sequence (looked up): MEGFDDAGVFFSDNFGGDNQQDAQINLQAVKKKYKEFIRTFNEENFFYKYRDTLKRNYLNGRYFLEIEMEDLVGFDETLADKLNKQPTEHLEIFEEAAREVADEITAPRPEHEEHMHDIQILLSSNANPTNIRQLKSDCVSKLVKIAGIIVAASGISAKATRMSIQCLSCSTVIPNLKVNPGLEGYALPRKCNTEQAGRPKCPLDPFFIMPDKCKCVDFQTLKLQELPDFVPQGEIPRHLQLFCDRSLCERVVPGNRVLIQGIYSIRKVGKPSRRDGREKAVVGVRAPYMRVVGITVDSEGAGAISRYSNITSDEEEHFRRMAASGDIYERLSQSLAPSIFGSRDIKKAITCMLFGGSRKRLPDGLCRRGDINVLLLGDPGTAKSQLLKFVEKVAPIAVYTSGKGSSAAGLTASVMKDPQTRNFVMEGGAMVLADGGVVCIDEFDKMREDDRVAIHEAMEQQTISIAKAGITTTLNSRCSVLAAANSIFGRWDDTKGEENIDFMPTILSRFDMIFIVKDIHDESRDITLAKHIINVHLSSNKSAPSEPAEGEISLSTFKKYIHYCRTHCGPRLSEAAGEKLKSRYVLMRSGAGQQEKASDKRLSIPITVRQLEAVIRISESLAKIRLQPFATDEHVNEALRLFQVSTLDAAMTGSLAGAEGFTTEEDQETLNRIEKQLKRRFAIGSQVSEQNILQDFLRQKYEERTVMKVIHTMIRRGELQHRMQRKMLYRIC

Test [2] concerns the target B2.
For test [3], the target named is T2, Mcm2 (Drosophila melanogaster, UniProt P49735 1-887).
T2 sequence (looked up): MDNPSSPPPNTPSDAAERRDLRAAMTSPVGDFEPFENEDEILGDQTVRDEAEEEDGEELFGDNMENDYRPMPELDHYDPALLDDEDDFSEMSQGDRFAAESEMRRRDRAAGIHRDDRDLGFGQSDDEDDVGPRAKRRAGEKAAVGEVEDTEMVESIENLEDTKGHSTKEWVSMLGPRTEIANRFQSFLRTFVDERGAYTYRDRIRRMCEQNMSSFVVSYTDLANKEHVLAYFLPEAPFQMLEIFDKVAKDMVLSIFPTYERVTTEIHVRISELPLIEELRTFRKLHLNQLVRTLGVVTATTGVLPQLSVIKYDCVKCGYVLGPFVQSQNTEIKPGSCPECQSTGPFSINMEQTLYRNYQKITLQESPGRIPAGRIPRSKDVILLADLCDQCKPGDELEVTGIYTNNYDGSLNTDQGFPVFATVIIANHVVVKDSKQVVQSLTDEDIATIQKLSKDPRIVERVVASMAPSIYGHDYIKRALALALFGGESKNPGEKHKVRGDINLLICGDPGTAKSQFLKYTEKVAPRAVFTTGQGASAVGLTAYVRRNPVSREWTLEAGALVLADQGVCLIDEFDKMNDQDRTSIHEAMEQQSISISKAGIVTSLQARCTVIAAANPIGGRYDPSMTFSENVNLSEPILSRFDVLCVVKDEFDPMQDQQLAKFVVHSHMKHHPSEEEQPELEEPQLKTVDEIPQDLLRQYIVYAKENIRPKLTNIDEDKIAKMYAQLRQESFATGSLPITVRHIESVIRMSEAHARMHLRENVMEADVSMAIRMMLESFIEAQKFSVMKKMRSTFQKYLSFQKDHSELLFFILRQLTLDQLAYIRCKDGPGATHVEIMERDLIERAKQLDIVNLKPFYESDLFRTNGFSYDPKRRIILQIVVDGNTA

With B1, the binding result in test [1] and in test [2] was “binds” throughout.
With B2, in test [3], the binding result was “binds”.
